From article PMC12269619 (2025) come the findings set out here.

Ends that are not written are not given here.

The chains are these.
B1: Biotinylated junctional peptide Pep21 (PfCSP peptide 21) (peptide)
peptide: NPDPNANPNVDPNAN
modifications: also: biotinylated, position not given here

The target of one assay is P3-7. In words: BLI. (In BLI a coated tip is dipped into the sample, and binding shifts an interference pattern.)
In another assay the target is P3-17. In words: BLI.
For a further assay, the target named is P3-10. In words: BLI.
The next assay addresses P3-45. In words: BLI.
The target of a further assay is P3-9. In words: BLI.
Another assay concerns the target P3-19. The assay can be described thus: BLI.
Another assay addresses P3-3. In words: BLI.
Assay [1] addresses T1, Biotinylated junctional peptide NPDP19 (Plasmodium falciparum (isolate 3D7), also: biotinylated, position not given here).
T1 chain: KQPADGNPDPNANPNVDPN
The assay can be described thus: BLI.

The target of assay [2] is PfCSPm. In words: BLI; KD2, second site.
Assay [3] addresses PfCSPm. The assay can be described thus: BLI; KD1.
For assay [4], the target named is B1. The assay can be described thus: BLI.

The term Kd denotes a measure of binding affinity in units of concentration. A lower Kd goes with tighter binding. In the case of B1, the Kd with P3-7 was determined as 24 nM; in the assay with P3-17, 17.8 nM; in the assay with P3-10, 20.4 nM; with P3-45, 19 nM; with P3-9, 21.8 nM; with P3-19, 14.6 nM. This molecule also yielded a Kd in the assay with P3-3 of 15.4 nM.

B2: m43.151 Fab (Fab, V domains shown)
VH: QVHLVQSGAEVKKPGASVKVSCKASGYTFTSYAIHWVRQAPGQRLEWMGWIKGGNGNTRYSQKFQDRVTITRDTSASTAYMELSSLRSEDTAVYYCALLTVITPDDAFDIWGQGTMVTVSS
VL: not shown
B2: the figures for the Kd (in assay [1]; with PfCSPm [2]; in the assay with PfCSPm [3]) were 2.2 nM, 1700 nM and 38.3 nM, respectively.

B3: P3-21 Fab (m42.127 T99R_H P100Q_H) (Fab, V domains shown)
VH: QVQLVQSGAEVKKPGASVKVSCKASGYTFTSYAIHWVRQAPGQRLEWMGWIKAGNGNTRYSQKFQDRVTITRDTSASTAYMELSSLRSEDTAVYYCALLTVIRQDDTFDIWGQGTMVTVSS
VL: not shown
Regarding B3, the Kd in assay [1] worked out at 2 nM; with PfCSPm [2], 1200 nM; in assay [4], 18 nM; with PfCSPm [3], 20.2 nM.

B4: P3-42 Fab (m43.151 A100cR_H) (Fab, V domains shown)
VH: QVHLVQSGAEVKKPGASVKVSCKASGYTFTSYAIHWVRQAPGQRLEWMGWIKGGNGNTRYSQKFQDRVTITRDTSASTAYMELSSLRSEDTAVYYCALLTVITPDDRFDIWGQGTMVTVSS
VL: not shown
Regarding B4, the Kd turned out to be 2.6 nM in assay [1], 3400 nM in the assay with PfCSPm [2], 14.5 nM in assay [4] and 13 nM with PfCSPm [3].

B5: m42.127 Fab (Fab, V domains shown)
VH: QVQLVQSGAEVKKPGASVKVSCKASGYTFTSYAIHWVRQAPGQRLEWMGWIKAGNGNTRYSQKFQDRVTITRDTSASTAYMELSSLRSEDTAVYYCALLTVITPDDTFDIWGQGTMVTVSS
VL: not shown
Regarding B5, the Kd in assay [1] was 2.2 nM; with PfCSPm [2], 2000 nM; with PfCSPm [3], 31.6 nM.

B6: P3-43 Fab (m43.151 P100K_H) (Fab, V domains shown)
VH: QVHLVQSGAEVKKPGASVKVSCKASGYTFTSYAIHWVRQAPGQRLEWMGWIKGGNGNTRYSQKFQDRVTITRDTSASTAYMELSSLRSEDTAVYYCALLTVITKDDAFDIWGQGTMVTVSS
VL: not shown
As for B6, the Kd in assay [1] is 1.7 nM; with PfCSPm [2] it was 1700 nM; with PfCSPm [3], 33.9 nM.
